{"source": "paper PMC4466255", "about": "“Direct Ionic Regulation of the Activity of Myo-Inositol Biosynthesis Enzymes in Mozambique Tilapia” (PLoS ONE, 2015)", "molecules": {"B1": {"name": "IMPase 1 (Oreochromis mossambicus) (protein)", "chain": "MEDPWQKAYDFAVAVARKAGAEIRKAGESEIRVMTKSSTVDLVTKTDERVEKIIIGSLKEEFGEGTHCFIGEESVAKGEPCILTDKPTWIIDPVDGTTNFVHGFPFVAVSIAFAVNKELEFGVVYSCLEDKMYKARKGKGAFCDNEPIAVSDVKDINRSIIIFEHGTDRSPEKVTKIFFTMQKILCIPVHGLRGSGTAGYKQCLVVIGGSEGVFDIGIHCWDIAAGADIVKEAGGILLDVDGGPFDLMSRRMVSANNETIAKRIIKEIEIFPVVRDDAPIEKK", "notes": "full-length CDS from seawater-acclimated gill cDNA, pET24a, 6xHis tag kept (C-terminal in Results, amino-terminal in Methods), E. coli Rosetta 2(DE3)pLysS, 32 kDa"}}, "key": {"[1]": {"target": "T1, MIPS-160 (Oreochromis mossambicus, UniProt Q1KN76)", "T1 construct": "full-length CDS from seawater-acclimated gill cDNA, pET24a, 6xHis tag kept (C-terminal in Results, amino-terminal in Methods), E. coli Rosetta 2(DE3)pLysS, 61 kDa", "T1 sequence (Q1KN76 1-518)": "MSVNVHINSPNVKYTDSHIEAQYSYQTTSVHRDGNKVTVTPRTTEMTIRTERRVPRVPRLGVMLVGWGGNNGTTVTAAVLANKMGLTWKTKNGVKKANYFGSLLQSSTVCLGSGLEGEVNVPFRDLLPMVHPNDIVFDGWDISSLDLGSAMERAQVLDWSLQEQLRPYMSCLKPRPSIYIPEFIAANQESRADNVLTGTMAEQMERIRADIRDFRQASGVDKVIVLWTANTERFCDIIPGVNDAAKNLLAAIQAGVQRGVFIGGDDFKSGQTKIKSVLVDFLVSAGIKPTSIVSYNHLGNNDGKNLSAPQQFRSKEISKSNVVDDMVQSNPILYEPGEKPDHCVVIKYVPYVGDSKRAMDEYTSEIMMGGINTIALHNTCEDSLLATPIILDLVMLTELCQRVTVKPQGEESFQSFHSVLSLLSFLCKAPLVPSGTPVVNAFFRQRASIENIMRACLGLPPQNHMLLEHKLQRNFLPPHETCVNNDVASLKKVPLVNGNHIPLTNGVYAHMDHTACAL", "experiment": "activity with or without NAD+", "format": "biochemical", "details": "G6P as substrate; 28°C"}, "[2]": {"substrate": "O=P(O)(O)O[C@@H]1[C@@H](O)[C@H](O)[C@@H](O)[C@H](O)[C@@H]1O", "experiment": "Pi release, BioMol Green, Michaelis-Menten fit", "format": "biochemical, Oreochromis mossambicus", "details": "50 mM Tris-HCl pH 8.2, 50 mM NaCl, 1 mM MgCl2, 28°C, standard buffer IAB, 220 mOsm", "excerpt": "(§1) Pi release, BioMol Green, Michaelis-Menten fit on IMPase 1"}, "[3]": {"substrate": "O=P(O)(O)O[C@@H]1[C@H](O)[C@H](O)[C@@H](O)[C@H](O)[C@H]1O", "experiment": "Pi release, BioMol Green, Michaelis-Menten fit", "format": "biochemical, Oreochromis mossambicus", "details": "50 mM Tris-HCl pH 8.2, 50 mM NaCl, 1 mM MgCl2, 28°C, standard buffer IAB, 220 mOsm", "excerpt": "as §1"}}, "data": [{"molecule": "NC(=O)c1ccc[n+]([C@@H]2O[C@H](COP(=O)(O)OP(=O)(O)OC[C@H]3O[C@@H](n4cnc5c(N)ncnc54)[C@H](O)[C@@H]3O)[C@@H](O)[C@H]2O)c1", "note": "[NAD^+]", "values": [{"measurement": "activity with or without NAD+", "setting": "[1]", "result": "MIPS-160 activity depends on NAD^+ (Fig 5B)"}]}, {"molecule": "B1", "values": [{"measurement": "Km", "setting": "[2]", "result": "930 ± 350", "unit": "µM"}, {"measurement": "Vmax", "setting": "[2]", "result": "0.0027 ± 0.0006", "unit": "nmol/s"}, {"measurement": "kcat", "setting": "[2]", "result": "0.962 ± 0.102", "unit": "s⁻¹"}, {"measurement": "kcat/Km", "setting": "[2]", "result": "1050 ± 200", "unit": "M⁻¹ s⁻¹"}, {"measurement": "Km", "setting": "[3]", "result": "538 ± 74", "unit": "µM"}, {"measurement": "Vmax", "setting": "[3]", "result": "0.0073 ± 0.0007", "unit": "nmol/s"}, {"measurement": "kcat", "setting": "[3]", "result": "2.585 ± 0.112", "unit": "s⁻¹"}, {"measurement": "kcat/Km", "setting": "[3]", "result": "4800 ± 1100", "unit": "M⁻¹ s⁻¹"}]}]}
